# Reference: patent US20050019306
# Target: p48-VP16 TAD (Homo sapiens / Herpes simplex virus) (UniProt Q00978)
# Assay: cell_activity
# Settings: 293T ISRE-Luc reporter
# Sequence of UniProt Q00978 (Q00978 1-393, tags or fused parts left off): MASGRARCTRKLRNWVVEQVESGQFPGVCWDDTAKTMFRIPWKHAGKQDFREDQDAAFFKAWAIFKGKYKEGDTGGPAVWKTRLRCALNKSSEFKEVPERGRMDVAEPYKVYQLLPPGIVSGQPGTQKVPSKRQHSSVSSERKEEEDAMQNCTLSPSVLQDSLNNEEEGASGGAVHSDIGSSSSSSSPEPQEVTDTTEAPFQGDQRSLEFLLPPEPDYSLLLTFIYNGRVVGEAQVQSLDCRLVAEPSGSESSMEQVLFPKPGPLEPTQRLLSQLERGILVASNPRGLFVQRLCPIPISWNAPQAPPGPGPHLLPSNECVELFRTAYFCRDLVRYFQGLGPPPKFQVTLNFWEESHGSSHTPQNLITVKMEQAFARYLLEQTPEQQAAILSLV
substance,measurement,value
5x ISG54 ISRE luciferase reporter,activity (fold relative to p48-S2C),3
